Data: EP1034789A1

Assays:
[1] = target: cellular receptor of fMLP (human); test: 3H-fMLP bound to cells, Exp. 1, no inhibitor
[2] = target: cellular receptor of fMLP (human); test: 3H-fMLP bound to cells, Exp. 1, with unlabeled fMLP
[3] = target: cellular receptors of MIP-1α on primary human monocytes and THP-1 cells (human); test: 125I-MIP-1α bound to THP-1 cells, Exp. 3, no inhibitor
[4] = target: cellular receptors of MIP-1α on primary human monocytes and THP-1 cells (human); test: 125I-MIP-1α bound to human monocytic cells, Exp. 1, no inhibitor
[5] = target: cellular receptors of MIP-1α on primary human monocytes and THP-1 cells (human); test: 125I-MIP-1α bound to primary human monocytes, Exp. 1, no inhibitor
[6] = target: cellular receptors of MIP-1α on primary human monocytes and THP-1 cells (human); test: 125I-MIP-1α bound to primary human monocytes, Exp. 2, no inhibitor
[7] = target: cellular receptors of MIP-1α on primary human monocytes and THP-1 cells (human); test: 125I-MIP-1α bound to THP-1 cells, Exp. 3, 6500X excess unlabeled MIP-1α (background control)
[8] = target: cellular receptors of MIP-1α on primary human monocytes and THP-1 cells (human); test: 125I-MIP-1α bound to primary human monocytes, Exp. 1, 6500X excess unlabeled MIP-1α (background control)
[9] = target: cellular receptors of MIP-1α on primary human monocytes and THP-1 cells (human); test: 125I-MIP-1α bound to primary human monocytes, Exp. 2, 6500X excess unlabeled MIP-1α (background control)
[10] = target: cellular receptors of MIP-1α on primary human monocytes and THP-1 cells (human); test: 125I-MIP-1α bound to human monocytic cells, Exp. 1, 6500X molar excess unlabeled MIP-1α (background control)

Row | Substance | Surface Bound fMLP [1] | Surface Bound fMLP [2] | Surface Bound MIP-1α [3] | Surface Bound MIP-1α [4] | Surface Bound MIP-1α [5] | Surface Bound MIP-1α [6] | Surface Bound MIP-1α [7] | Surface Bound MIP-1α [8] | Surface Bound MIP-1α [9] | Surface Bound MIP-1α [10]
1 | fMLP (peptide) | 374 cpm | 132 cpm |  |  |  |  |  |  |  | 
2 | human MIP-1α (from UniProt P10147 24-92) (ligand) |  |  | 9940 cpm | 12200 cpm | 4700 cpm | 7710 cpm | 1040 cpm | 470 cpm | 410 cpm | 444 cpm
